Assay results as given in PMC7954794, “Protein context shapes the specificity of SH3 domain-mediated interactions in vivo” (Nature Communications, 2021).

System: growth of yeast strains under 51 stress conditions
Assay: Growth assays in 51 stress conditions (Fig. 1E-F, S2D, S5B)
Type: cell-based, Saccharomyces cerevisiae
Design: Sla1 strains growth distance: scale not given here
Settings: 51 stress conditions, Fig S5B
Method in brief: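 Colony sizes at 74 h on 51 stress media (37 °C) were log2 transformed, corrected for plate effects, and averaged across two plates as per-plate medians (growth score). Strains arrayed in 12 replicates with WT border, grown first on YPD for two days at 30 °C.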

B1: WT¦WT¦WT (protein, UniProt P32790 1-1244, looked up)
Actin cytoskeleton-regulatory …: MTVFLGIYRAVYAYEPQTPEELAIQEDDLLYLLQKSDIDDWWTVKKRVIGSDSEEPVGLVPSTYIEEAPVLKKVRAIYDYEQVQNADEELTFHENDVFDVFDDKDADWLLVKSTVSNEFGFIPGNYVEPENGSTSKQEQAPAAAEAPAATPAAAPASAAVLPTNFLPPPQHNDRARMMQSKEDQAPDEDEEGPPPAMPARPTATTETTDATAAAVRSRTRLSYSDNDNDDEEDDYYYNSNSNNVGNHEYNTEYHSWNVTEIEGRKKKKAKLSIGNNKINFIPQKGTPHEWSIDKLVSYDNEKKHMFLEFVDPYRSLELHTGNTTTCEEIMNIIGEYKGASRDPGLREVEMASKSKKRGIVQYDFMAESQDELTIKSGDKVYILDDKKSKDWWMCQLVDSGKSGLVPAQFIEPVRDKKHTESTASGIIKSIKKNFTKSPSRSRSRSRSKSNANASWKDDELQNDVVGSAAGKRSRKSSLSSHKKNSSATKDFPNPKKSRLWVDRSGTFKVDAEFIGCAKGKIHLHKANGVKIAVAADKLSNEDLAYVEKITGFSLEKFKANDGSSSRGTDSRDSERERRRRLKEQEEKERDRRLKERELYELKKARELLDEERSRLQEKELPPIKPPRPTSTTSVPNTTSVPPAESSNNNNSSNKYDWFEFFLNCGVDVSNCQRYTINFDREQLTEDMMPDINNSMLRTLGLREGDIVRVMKHLDKKFGRENIASIPTNATGNMFSQPDGSLNVATSPETSLPQQLLPQTTSPAQTAPSTSAETDDAWTVKPASKSESNLLSKKSEFTGSMQDLLDLQPLEPKKAAASTPEPNLKDLEPVKTGGTTVPAAPVSSAPVSSAPAPLDPFKTGGNNILPLSTGFVMMPMITGGDMLPMQRTGGFVVPQTTFGMQSQVTGGILPVQKTGNGLIPISNTGGAMMPQTTFGAAATVLPLQKTGGGLIPIATTGGAQFPQTSFNVQGQQQLPTGSILPVQKTANGLISANTGVSMPTVQRTGGTMIPQTSFGVSQQLTGGAMMTQPQNTGSAMMPQTSFNAVPQITGGAMMPQTSFNALPQVTGGAMMPLQRTGGALNTFNTGGAMIPQTSFSSQAQNTGGFRPQSQFGLTLQKTGGIAPLNQNQFTGGAMNTLSTGGVLQQQQPQTMNTFNTGGVMQELQMMTTFNTGGAMQQPQMMNTFNTDGIMQQPQMMNTFNTGGAMQQPQQQALQNQPTGFGFGNGPQQSRQANIFNATASNPFGF
Distance to ABP1¦WT¦WT
  Sla1 strains growth distance: 32.7633
Distance to ABP1¦WT¦WT, listed as WT¦WT¦WT*
  Sla1 strains growth distance: 32.7344
Distance to D¦D¦D
  Sla1 strains growth distance: 13.1994
Distance to D¦D¦D, listed as WT¦WT¦WT*
  Sla1 strains growth distance: 13.2336
Distance to D¦WT¦D
  Sla1 strains growth distance: 4.481
Distance to D¦WT¦D, listed as WT¦WT¦WT*
  Sla1 strains growth distance: 4.3276
Distance to D¦WT¦SH3-1
  Sla1 strains growth distance: 9.537
Distance to D¦WT¦SH3-1, listed as WT¦WT¦WT*
  Sla1 strains growth distance: 9.613
Distance to D¦WT¦SH3-2
  Sla1 strains growth distance: 5.1186
Distance to D¦WT¦SH3-2, listed as WT¦WT¦WT*
  Sla1 strains growth distance: 4.955
Distance to D¦WT¦WT
  Sla1 strains growth distance: 4.59
Distance to D¦WT¦WT, listed as WT¦WT¦WT*
  Sla1 strains growth distance: 4.434
Distance to SH3-2¦SH3-1¦WT
  Sla1 strains growth distance: 7.002
Distance to SH3-2¦SH3-1¦WT, listed as WT¦WT¦WT*
  Sla1 strains growth distance: 6.862
Distance to SH3-2¦WT¦D
  Sla1 strains growth distance: 9.252
Distance to SH3-2¦WT¦D, listed as WT¦WT¦WT*
  Sla1 strains growth distance: 9.12
Distance to SH3-2¦WT¦WT
  Sla1 strains growth distance: 2.328
Distance to SH3-2¦WT¦WT, listed as WT¦WT¦WT*
  Sla1 strains growth distance: 2.435
Distance to SH3-3¦SH3-1¦D
  Sla1 strains growth distance: 3.781
Distance to SH3-3¦SH3-1¦D, listed as WT¦WT¦WT*
  Sla1 strains growth distance: 3.648
Distance to SH3-3¦SH3-1¦SH3-2
  Sla1 strains growth distance: 4.4511
Distance to SH3-3¦SH3-1¦SH3-2, listed as WT¦WT¦WT*
  Sla1 strains growth distance: 4.2977
Distance to SH3-3¦WT¦D
  Sla1 strains growth distance: 11.8089
Distance to SH3-3¦WT¦D, listed as WT¦WT¦WT*
  Sla1 strains growth distance: 11.8591
Distance to SH3-3¦WT¦SH3-1
  Sla1 strains growth distance: 11.5081
Distance to SH3-3¦WT¦SH3-1, listed as WT¦WT¦WT*
  Sla1 strains growth distance: 11.5693
Distance to SH3-3¦WT¦WT
  Sla1 strains growth distance: 11.7278
Distance to SH3-3¦WT¦WT, listed as WT¦WT¦WT*
  Sla1 strains growth distance: 11.7806
Distance to WT*¦WT¦WT
  Sla1 strains growth distance: 0.6236
Distance to WT*¦WT¦WT, listed as WT¦WT¦WT*
  Sla1 strains growth distance: 0.5854
Distance to WT¦ABP1¦WT
  Sla1 strains growth distance: 11.3779
Distance to WT¦ABP1¦WT, listed as WT¦WT¦WT*
  Sla1 strains growth distance: 11.4192
Distance to WT¦D¦D
  Sla1 strains growth distance: 4.458
Distance to WT¦D¦D, listed as WT¦WT¦WT*
  Sla1 strains growth distance: 4.315
Distance to WT¦D¦SH3-2
  Sla1 strains growth distance: 5.097
Distance to WT¦D¦SH3-2, listed as WT¦WT¦WT*
  Sla1 strains growth distance: 4.943
Distance to WT¦D¦WT
  Sla1 strains growth distance: 5.311
Distance to WT¦D¦WT, listed as WT¦WT¦WT*
  Sla1 strains growth distance: 5.149
Distance to WT¦SH3-1¦D
  Sla1 strains growth distance: 0.4704
Distance to WT¦SH3-1¦D, listed as WT¦WT¦WT*
  Sla1 strains growth distance: 0.4379
Distance to WT¦SH3-1¦WT
  Sla1 strains growth distance: 0.4878
Distance to WT¦SH3-1¦WT, listed as WT¦WT¦WT*
  Sla1 strains growth distance: 0.5418
Distance to WT¦SH3-3¦D
  Sla1 strains growth distance: 5.1001
Distance to WT¦SH3-3¦D, listed as WT¦WT¦WT*
  Sla1 strains growth distance: 4.947
Distance to WT¦SH3-3¦SH3-2
  Sla1 strains growth distance: 5.331
Distance to WT¦SH3-3¦SH3-2, listed as WT¦WT¦WT*
  Sla1 strains growth distance: 5.179
Distance to WT¦SH3-3¦WT
  Sla1 strains growth distance: 4.703
Distance to WT¦SH3-3¦WT, listed as WT¦WT¦WT*
  Sla1 strains growth distance: 4.556
Distance to WT¦WT*¦WT
  Sla1 strains growth distance: 0.917
Distance to WT¦WT*¦WT, listed as WT¦WT¦WT*
  Sla1 strains growth distance: 0.7508
Distance to WT¦WT¦ABP1
  Sla1 strains growth distance: 1.932
Distance to WT¦WT¦ABP1, listed as WT¦WT¦WT*
  Sla1 strains growth distance: 1.926
Distance to WT¦WT¦D
  Sla1 strains growth distance: 0.5681
Distance to WT¦WT¦D, listed as WT¦WT¦WT*
  Sla1 strains growth distance: 0.4359
Distance to WT¦WT¦SH3-1
  Sla1 strains growth distance: 0.5772
Distance to WT¦WT¦SH3-1, listed as WT¦WT¦WT*
  Sla1 strains growth distance: 0.4107
Distance to WT¦WT¦SH3-2
  Sla1 strains growth distance: 0.55
Distance to WT¦WT¦SH3-2, listed as WT¦WT¦WT*
  Sla1 strains growth distance: 0.3776
Distance to WT¦WT¦WT*
  Sla1 strains growth distance: 0.496
Distance to WT¦WT¦WT*, listed as WT¦WT¦WT*
  Sla1 strains growth distance: 0
Distance to WT¦WT¦WT
  Sla1 strains growth distance: 0
Distance to WT¦WT¦WT, listed as WT¦WT¦WT*
  Sla1 strains growth distance: 0.496
